The data set deals with the molecule itself. The experiment in a line: SDS-PAGE / Western blot, self-association. The protocol: SDS-PAGE and immunoblotting. The purity of cathelin-like or hCAP18/LL-37 protein was first confirmed by SDS-PAGE followed by Coomassie blue and silver staining. For Western blot, protein was separated by SDS-PAGE and was then transferred to nitrocellulose membranes using the Bio-Rad system. Membranes were blocked for 1 h at room temperature with 0.1% low fat milk in 50 mM Tris-HCl, pH 7.5, 150 mM NaCl, 0.2% Tween-20, and were probed overnight at […] with chicken polyclonal anticathelin-like antibodies (1:15,000) to detect cathelin-like protein or with rabbit anti-LL-37 antibodies (1:6000) to detect full-length hCAP18/LL-37, followed by extensive washing. Immunoreactive materials were detected by enhanced chemiluminescence using horseradish peroxidase conjugated antichicken antibodies (1:20,000) or horseradish peroxidase conjugated antirabbit antibodies (1:5000).
In general terms: A western blot detects proteins with antibodies after separation by electrophoresis.

B1: His-tagged cathelin-like fusion protein (before enterokinase digestion), approximately 16 kDa (other, not shown: small tags and cut ends)
chain: QVLSYKEAVLRAIDGINQRSSDANLYRLLDLDPRPTMDGDPDTPKPVSFTVKETVCPRTTQQSPEDCDFKKDGLVKRCMGTVTLNQARGSFDISCDKDNKR
notes: also called His-tagged cathelin-like protein before cleavage; cathelin-like protein before digestion with enterokinase
On to B1, for which the binding result is on record as “binds”.

Source of the values: patent US7173007 (University of California, dated 2007).
